The record followed here is PMC5384083.

B1: T7 tagged FoxM1 wild type (WT) [not stated] / Retinoblastoma protein (Rb), endogenous [human (endogenous in MCF7 and MDA-MB-453)] (parent)
chain 1: MKTSPRRPLILKRRRLPLPVQNAPSETSEEEPKRSPAQQESNQAEASKEVAESNSCKFPAGIKIINHPTMPNTQVVAIPNNANIHSIITALTAKGKESGSSGPNKFILISCGGAPTQPPGLRPQTQTSYDAKRTEVTLETLGPKPAARDVNLPRPPGALCEQKRETCADGEAAGCTINNSLSNIQWLRKMSSDGLGSRSIKQEMEEKENCHLEQRQVKVEEPSRPSASWQNSVSERPPYSYMAMIQFAINSTERKRMTLKDIYTWIEDHFPYFKHIAKPGWKNSIRHNLSLHDMFVRETSANGKVSFWTIHPSANRYLTLDQVFKQQKRPNPELRRNMTIKTELPLGARRKMKPLLPRVSSYLVPIQFPVNQSLVLQPSVKVPLPLAASLMSSELARHSKRVRIAPKVLLAEEGIAPLSSAGPGKEEKLLFGEGFSPLLPVQTIKEEEIQPGEEMPHLARPIKVESPPLEEWPSPAPSFKEESSHSWEDSSQSPTPRPKKSYSGLRSPTRCVSEMLVIQHRERRERSRSRRKQHLLPPCVDEPELLFSEGPSTSRWAAELPFPADSSDPASQLSYSQEVGGPFKTPIKETLPISSTPSKSVLPRTPESWRLTPPAKVGGLDFSPVQTSQGASDPLPDPLGLMDLSTTPLQSAPPLESPQRLLSSEPLDLISVPFGNSSPSDIDVPKPGSPEPQVSGLAANRSLTEGLVLDTMNDSLSKILLDISFPGLDEDPLGPDNINWSQFIPELQ
chain 2: MPPKTPRKTAATAAAAAAEPPAPPPPPPPEEDPEQDSGPEDLPLVRLEFEETEEPDFTALCQKLKIPDHVRERAWLTWEKVSSVDGVLGGYIQKKKELWGICIFIAAVDLDEMSFTFTELQKNIEISVHKFFNLLKEIDTSTKVDNAMSRLLKKYDVLFALFSKLERTCELIYLTQPSSSISTEINSALVLKVSWITFLLAKGEVLQMEDDLVISFQLMLCVLDYFIKLSPPMLLKEPYKTAVIPINGSPRTPRRGQNRSARIAKQLENDTRIIEVLCKEHECNIDEVKNVYFKNFIPFMNSLGLVTSNGLPEVENLSKRYEEIYLKNKDLDARLFLDHDKTLQTDSIDSFETQRTPRKSNLDEEVNVIPPHTPVRTVMNTIQQLMMILNSASDQPSENLISYFNNCTVNPKESILKRVKDIGYIFKEKFAKAVGQGCVEIGSQRYKLGVRLYYRVMESMLKSEEERLSIQNFSKLLNDNIFHMSLLACALEVVMATYSRSTSQNLDSGTDLSFPWILNVLNLKAFDFYKVIESFIKAEGNLTREMIKHLERCEHRIMESLAWLSDSPLFDLIKQSKDREGPTDHLESACPLNLPLQNNHTAADMYLSPVRSPKKKGSTTRVNSTANAETQATSAFQTQKPLKSTSLSLFYKKVYRLAYLRLNTLCERLLSEHPELEHIIWTLFQHTLQNEYELMRDRHLDQIMMCSMYGICKVKNIDLKFKIIVTAYKDLPHAVQETFKRVLIKEEEYDSIIVFYNSVFMQRLKTNILQYASTRPPTLSPIPHIPRSPYKFPSSPLRIPGGNIYISPLKSPYKISEGLPTPTKMTPRSRILVSIGESFGTSEKFQKINQMVCNSDRVLKRSAEGSNPPKPLKKLRFDIEGSDEADGSKHLPGESKFQQKLAEMTSTRTRMQKQKMNDSMDTSNKEEK
B2: T7 tagged FoxM1 wild type (WT) [not stated] / DNMT3b, endogenous [human (endogenous in MCF7 and MDA-MB-453)] (parent)
chain 1: B1 chain 1
chain 2: not shown

One assay covers variants of B1. In words: co-immunoprecipitation (IP T7, western blot Rb), band intensity given. As to conditions: with Retinoblastoma protein (Rb), MDA-MB-453 cells, cell lysates (800 ug). On the technique in general: In western blotting, separated proteins are transferred to a membrane and probed.
Consider chain 1 S715D S724D, for which the response was determined as 0.09. As to chain 1 T596A, the response is 22.8.

Variants of B2 are the subject of another assay. As to the kind of experiment: co-immunoprecipitation (IP T7, western blot DNMT3b), band intensity given. Conditions: with DNMT3b, MDA-MB-453 cells.
Consider chain 1 T596A, for which the response was 132. The same measure, in the same setting: the figure for chain 1 S715D S724D is 10.
